Data from the DeepSol protein solubility set.

Assay: soluble on expression in E. coli; label from the status in PepcDB or PDB records

For “MSLGGEVRGPVAVADFAKHVAQLHADGDIGFSKEYEAIQGEALNDEYPSENSQHPENKGKNRYLNVIAYDHSRVHLRQVPGQKKHLDYINANFIDGYQKPRAFIGTQGPLPGTFDCFWRMVWEQRVAVIVMITNLVERGRRKCDMYWPKDGTETYGIIQVRLVKEDVMATYTVRTLHIKHLKMKKKKQSQMEKTVYQYHYTNWPDHGTPDHPLPVINFVKKSTTANLPDGGPIVVHSSAGVGRTGTFIVLDAMLKQIEAKGSLNVFGFLRYIRAQRNYLVQTEEQYIFIHDALVEAITSGETNEGHHHHHH”, which “soluble on expression in E. coli” value is on record?
The value was “soluble”.

For “MSLGILEDKKRARIFYRYFSKIYDYINPIFYSDKMRKTVVDMADIDAESLVLEVGCGTGFTTEEIVRRIGEERVVAVDITPEQMMKARAKMGGVNYFLGDAENLPFKDNSFDAAISAGSIEYWPNPQRGIEEMARVTKSGGKVVILAPRKPDNFAVRKFAESIMLFPSTQQCVYWFMKAGLEDIRFVETGPYRFWSKLVVIISGTVPEGHHHHHH”, which “soluble on expression in E. coli” value is on record?
The value was “soluble”.

For “MSLGITRVVLADDHAVVRAGLRTALAALPDCEVVSEAATGPQLLAVLAQHHPDLLVVDVAMPDFDPIATIRQIHADYPAMKILVVSAYDDQSYVVGLLAAGVNGYHLKDQPLSDLQLAVQRIMAGGNWISSPLLSRLIQAAPQIAHSSPITLTKRQRDLLRLIAQGYDNRRMAQEMDLSIKTIENHLTALYRTIRVSSRLEAYQFALRHPELLAESGHEAALSREPSTSPAPLMVMIIDDNERYRAQLKRMIGKACAESQIYEAEDCHEATRLLRQITPDLVFVDVILQDGDGIQCLRRLKSVSPHTRVILISAYPDREFRRLGLEAGALAFLDKKDLDAATVRQVVEDTLRREGHHHHHH”, which “soluble on expression in E. coli” value is on record?
Its value is “soluble”.

With “MSLGKEGLERLVYMVDRSDSLSLLQERIDSIEVVAPQVFSFTLEGTVYGEVDPRIIALAKERGKKLMPLVMNENFEKEKIKAFLANPKAQERLIGSLIKIALKEGFGGWQLDFEHLGITSKEAYTQLVRQLYARLKEHHLSLSIAVVPPRGEEPKNAYGAKVFEDWVSPYDLKALAEHSDFLTLMAYDQHTGGSTPGPIASRAWVEGIIQEALIWVPKEKLSLGIPLYSRLWHAGIKEEKMRGVAKSLTFAGAMDWLERQGAETLWLERDGVKWAMGERGGVKEYLFMEEARSLALKVELAKRYGLRGISLWRLGQEDPRIWDELEGHHHHHH” as the sequence, how does the “soluble on expression in E. coli” value read?
The value was “soluble”.

For “MSLGKLLFVDIGGTLLDYSNEVPRSAVDAIRKARAKGHRVYLSSGRSSAEVTSQLWDIGVDGLIGANGGYVESAQESVFHRRLSGEETRHIVEWLYNRGLEFYLESNNGLYASRGFREASKPVLSRLSEKTDVTVDSMYPDMFWGASLDRDDVNKISYIFNSQEDLDAAREAFPNLEHTTWGGQTGALFGTIGVSVNKKIGVDRLLKYLNADRANTIAFGDSDEDLSLFEASAYGVAMGEATESLKAAADLVTDAVGQDGLRNAFLKLELIDAEGHHHHHH”, which “soluble on expression in E. coli” value is on record?
Its value is “soluble”.

Which “soluble on expression in E. coli” value does the source give for “MSLGKTLLVDSKGLILDGKHIIPVMGEIHYSRVPESEWRREIRKMKAGGINIISTYIFWIHHEPEEGKWNWSGNHNLRRFVRICAEENVMLVLRLGPFCHGEVYQGGIPSWVHEKAGQNPKYKIRARTPGFLEDCTELYNTIFAQVNGLLWKDGGPVVGVQIENESRGPWDYLEALKNIAVKAGFDVPFYTRTGWPALRGKEVFGQLLPLYGDYADGFWDRKLEDMPGSYADAFIMRDKRMSSAIATETFSKEELSEDSPSLSSKLSYPYFTCELGGGMMPAYHRRININGKELKPLVICKLGSGSNLPGYYMYHGGTNPYNPLHTMGETQSSPGTNHNDLPHMTYDFQAPLGEVGQVFETPFHEGRFIHQMLTDWGSELLQMNVDSLSRHYARRGAFEFYNDYVRIKNESGTSHVTFKDYRTEGATIDWTTVEPFCKVDGLIYFIEIRGKKPQISVDGKVYTCKLNKEGHHHHHH” here?
Its value is “not soluble”.

With “MSLGLTPHAPSPLADRLRPQSLDEVVGQQHLLGPEGPIGRMAAARRLASMILWGPPGTGKTTIARLLAKAGGYEFMQISAVFSGVADLKKAFEQARARRMAGQSTLLFVDEIHRFNRAQQDGFLPFVEEGIVTLVGATTENPSFELNGALLSRCQVFVLKRLTEESLELLLQRAEAAENRPLPIDAEARSALVAMADGDGRYLLTLAETLFSIGTDTPLNPTQLGQFLQKRRPAYDKDREEHYNLISALHKSVRGSDPDAALYWLARMLEGGEDPLFIARRLVRMASEDIGAADPLSLLLTTAAKDAYDFLGSPEGELALAQAVVHMASAPKSNAVYTAYKAARRAAKETGSLMPPSHILNAPTKLMKSLGYGDGYAYDHDVEGGVSGQNYFPDGMERRRFYEPKPVGAEAKVRERLEAWGKVRKDGKEGHHHHHH” as the sequence, how does the “soluble on expression in E. coli” value read?
Its value is “soluble”.

For “MSLGNIKTLLENRFKKPTSDKMESLAKKRLEGELSPFLNGFTNPKLSSQEEAKFRQLLEEYSFSNEISKHDLQQLCHLSAQVKQIHHQAVLLHGERIKKVRELLTSYREGAFSAWLLLTYGNRQTPYNFLVYYELFSTLPDSLKLELEKLPRQAVYTLAAREGTQEKKEAIIRNYQGETKGELLEIIRKEFPLLPTDRRHTPLSQKAFTLLAKGTKLLRQCTDVSHEELIALEKLIKKLQKVTTNLLSNTKVSRNDNEIQNSRNEGHHHHHH”, which “soluble on expression in E. coli” value is on record?
Its value is “soluble”.

For “MSLGNREILYKNLFYNAELFTCRFPELSAALGLDSEIGIKQFAERIPESYYLEEAKLKETDKKIFTARINGKYLHSKYNPISEAEKNISLDFFEDKKAKSSCVFCGLGLGYAQELYAKKYPKSSLIIIEPDLFVFFLFLQSRPLDDFFMHENLILLLGLYPKDVLDFFESKSFFDTPIFKIQSLIDVSSSWFSEFEALKKRRNEKTNLNKNTLKKFGKLWLKNFLKNIKQTEGLFGINKIENIFASCPALIIAAGPGLDDTINLVKENEDKFIIIAADTAVRACHRHGLKPDFILLMDAQYWNYLHLSDLDISDSILITESSVYPAVFRLKTRAKFLCTSMFPLAQYIEKLIGEKGKLVTGGSVATACWDFARILGCSEIIFAGLDLAFPDFQTHFKGSRFEEDVNAFSNRFFPSETASHLSLYSASPQLKEGYEGKVLSDKRMQMYAWWFESKIAEFPDIKTYNLLPRGLKIPNMPALSMEEFLLKAKASPLSKKIKIEKMSALFNLSSYKKEGSFSSPNLSSALKELSTDLEKTMKLAREGMDICLNLLDSLKTGKPLEDSIIKKVWKTEGHHHHHH”, which “soluble on expression in E. coli” value is on record?
The value was “soluble”.

Which “soluble on expression in E. coli” value does the source give for “MSLGPADGGGDLVGVAGRESWVQTVPYGMVVCPSGTFHMGQADEDVPATQINLNKQVTIGGFYMDETEITNNEYRQFMNVMLEDSVATLGEEYIMTELYPDTTVWVRDFSHHMGDPMMEYYYAHPAFDEYPVVGVDWWAAKYFCEWRTQHMNNWRAENGLWQMPRFRLPSEAEWEYAARGGRDMAKYPWGNPYIRNSKGCMLANFKPGRGNYYDDGFMYTSPVASYFSNDFGLYDMAGNISEWCEDAYYDAAVPIVWDLNPTYYNDDEVRKIIRGGSWKDIAYYLETGTRTFEYQDTSKSYIGFRTVMTYLGRSSGYEGHHHHHH” here?
Its value is “not soluble”.

Which “soluble on expression in E. coli” value does the source give for “MSLGQGIPANPADGAGEWGDYRDCDSPWKAVEDAVRAAARQHPDAAYVYYTGDIIDHGVWETTVAGNIVSMTRTYQLFRDVFGSKPVYNVLGNHENNPTNVFAPSYITQSEFSAKWLYDFSADQWSTWLPTASQQTIRQGGFYTVLVRPGFRIIGMNNNDAYTFNWWILYDPAYLQAQLQWVHDTLLQAEAAGEKVHILAHIPIGAGTSYRTWARQYRRILDRFWDVITAHFHGHTHADEFNVFYSLANPQHAISAGFNGGGTVPFSNYNPNYVVYYVNPQTYDVTDFESWYFSLTEANQNPNREGHHHHHH” here?
Its value is “not soluble”.

With “MSLGQHFLKDLKVAQDIADTVDTFPELPVLEVGPGMGVLTQFLVKKDRLVKVVEVDYESVAYLREAYPSLEDHIIEDDFLKMNLHRLFDGKPFVLTGNYPYNISSQIFFKMLENKDIIPCCTGMIQKEVAERIAAGPGSKTYGILSVLIQAWYKVEYLFTVSEHVFNPPPKVKSAVIRMTRNDTKELGCDEKLFKQVVKTTFNQRRKTLRNSIKPILGKDCPLTEDALFNKRPEQLSVEEFISLTNQVEEALKTATASEGHHHHHH” as the sequence, how does the “soluble on expression in E. coli” value read?
Its value is “soluble”.

For “MSLGQKVVAMLDFLLAYSDYSKDFRPLIIDQPEDNLDNRYIYRHLVQQFRDVKAQRQIILATHNATIVTNSMTDQVVIMESDGVNGWIESQGYVSEKYIKNHIINQLEGGKDSFKHKMSIYETALSEGHHHHHH”, which “soluble on expression in E. coli” value is on record?
Its value is “not soluble”.

Which “soluble on expression in E. coli” value does the source give for “MSLGRGLYFNQAQKHFQQLLLMEERATIARELHDSLAQVLSYLRIQLTLLKRSIPEDNATAQSIMADFSQALNDAYRQLRELLTTFRLTLQQADLPSALREMLDTLQNQTSAKLTLDCRLPTLALDAQMQVHLLQIIREAVLNAMKHANASEIAVSCVTAPDGNHTVYIRDNGIGIGEPKEPEGHYGLNIMRERAERLGGTLTFSQPSGGGTLVSISFRSAEGEESQLMEGHHHHHH” here?
The value was “soluble”.

With “MSLGVKVDESFCLSDRDHIRKRPNMYVGSVNREAHERFIMGKFRKVEYVEGLVKIINEILDNSIDEAIRTDFKFANRIEVKIDHNLVTISDNGRGIPQDDVRTPEGKIVPKPVAAWTMAKSGSNFDDENRVTMGMNGVGSFLTNCYSSIFIGETSNGKRKVTINCTDGAQNMDYRTSPTKEQGTTVKFTPDFSIFGVDGIDEETKEVIKDRLMALAVAFPSVKFTYNGETLPNKFAMYGAMYGDSTITQTNNKISFILASTEDGFKQKSFVNGLDTKNGGVHVDCMIDGIYAELEPMIKKKHAIEIPKARVKECLTLVVFLHNFNAPAFDSQTKEKLTNTAGEFNNHAGLNYKKIAKQIMDTSEIITPIIESALIRKQAAEAAAITKEGHHHHHH” as the sequence, how does the “soluble on expression in E. coli” value read?
The value was “soluble”.

For “MSLGVLFSPPPASAYDGVEFLEFAVDEAVGARLGNWLKRLGFAEAGKHRSKEVQLLRQGDINIVLNAEPYSFGHNFFEAHGPSLCATALRVKDQQAALKRATAFRGQPFRGLVGPNECEVPAVRAPDGSLLYLVEQGTAGHTLYDTDFSLDNNATATGGLRRIDHMALALPAESLDSWVLFYKSLFDFAADDEVVLPDPYGLVKSRALRSQCGTLRLPLNISENRNTAIAHALSSYRGSGVHHIAFDCDDIFREVARAKLAGVPLLEIPLNYYDDLAARFDFDDEFLSELAYYNVLYDRDAQGGELFHVYTEPFEERFFFEIIQRKAGYAGYGAANVAVRLAAMAKARSGAARKEGHHHHHH”, which “soluble on expression in E. coli” value is on record?
Its value is “soluble”.

With “MSLGYIMDLRKELPNPHRPLIMCSAGIIIIDKKGRVLLQKRTDNNKWGLPGGSLELGESFEEAAIREAYEEVGLKVKSLSLFNVYSGKECYNKYPNGDEIYNASSIFISNDYEGEVILDGEESADAVFFKKVDIPSLEEVNPPDRIVIKDIIEKLNIEKYEGHHHHHH” as the sequence, how does the “soluble on expression in E. coli” value read?
The value was “not soluble”.

For “MSLHSVAEREKRNAVHDSLTGLPNRKYCFELIDDRIQSGDPFSVILFDVVNFKQVNDAMGHFCGDQLLIQIGQRLQDKLKGSDKIFRVGGDEFVILTSSACEKTGTELIESLDCALSARFHLDEFQVSSRVVFGISTYPYDAISNDLLIKHADIAMYHAKRNGNLFAFYHDDMNVGAKYQLEISSRIQCALEKEEFQLYYQPLIDANTNLAVGFEAVIRWHDENGKTISPNDFIPIAERSNQVHNITMWVLGQVEKDLKTFIEKGIKLPVHVNLSAKDLSSNLLFHRLEKLLENNPQFADLISLEITETMAIDRVVELNPLIHQIKGLGIKISLDDFGTGYSSLSLLRDLPVDQIKIDRSFLCTANRTEGSRSIVENTIALAHGLGYSVVAEGVQDMDTLYFLRSRGCDIIQGYLFCPALPLNEVINWVNEHDDKQSHTRRAEGHHHHHH”, which “soluble on expression in E. coli” value is on record?
The value was “soluble”.
